Target: spop_human SPOP (UniProt O43791)
Sequence (O43791 whole entry): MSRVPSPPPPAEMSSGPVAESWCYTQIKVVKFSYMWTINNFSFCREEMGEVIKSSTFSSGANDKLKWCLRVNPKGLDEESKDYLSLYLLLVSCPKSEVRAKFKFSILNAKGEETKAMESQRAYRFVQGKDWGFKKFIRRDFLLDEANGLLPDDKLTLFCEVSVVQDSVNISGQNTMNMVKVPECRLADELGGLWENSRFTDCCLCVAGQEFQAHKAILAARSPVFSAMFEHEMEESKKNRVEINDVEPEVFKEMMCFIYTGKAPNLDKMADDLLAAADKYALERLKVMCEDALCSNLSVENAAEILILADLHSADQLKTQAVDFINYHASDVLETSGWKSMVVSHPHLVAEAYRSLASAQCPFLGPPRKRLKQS

Row | effect of a mutation on the interaction | Substance
1 | disrupting interaction | Nuclear receptor coactivator 3 (Homo sapiens), Q9Y6Q9 S101A;S102A
2 | disrupting interaction | Nuclear receptor coactivator 3 (Homo sapiens), Q9Y6Q9 S102A
